Reference: IntAct's records for PubMed 27927196

B1: Lipopolysaccharide-induced tumor necrosis factor-alpha factor (Homo sapiens), Q99732 (parent)
chain: MSVPGPYQAATGPSSAPSAPPSYEETVAVNSYYPTPPAPMPGPTTGLVTGPDGKGMNPPSYYTQPAPIPNNNPITVQTVYVQHPITFLDRPIQMCCPSCNKMIVSQLSYNAGALTWLSCGSLCLLGCIAGCCFIPFCVDALQDVDHYCPNCRALLGTYKRL

Variants of: B1
Conditions: with nedd4_human NEDD4, P46934
Chain of nedd4_human NEDD4, P46934 (P46934 whole entry): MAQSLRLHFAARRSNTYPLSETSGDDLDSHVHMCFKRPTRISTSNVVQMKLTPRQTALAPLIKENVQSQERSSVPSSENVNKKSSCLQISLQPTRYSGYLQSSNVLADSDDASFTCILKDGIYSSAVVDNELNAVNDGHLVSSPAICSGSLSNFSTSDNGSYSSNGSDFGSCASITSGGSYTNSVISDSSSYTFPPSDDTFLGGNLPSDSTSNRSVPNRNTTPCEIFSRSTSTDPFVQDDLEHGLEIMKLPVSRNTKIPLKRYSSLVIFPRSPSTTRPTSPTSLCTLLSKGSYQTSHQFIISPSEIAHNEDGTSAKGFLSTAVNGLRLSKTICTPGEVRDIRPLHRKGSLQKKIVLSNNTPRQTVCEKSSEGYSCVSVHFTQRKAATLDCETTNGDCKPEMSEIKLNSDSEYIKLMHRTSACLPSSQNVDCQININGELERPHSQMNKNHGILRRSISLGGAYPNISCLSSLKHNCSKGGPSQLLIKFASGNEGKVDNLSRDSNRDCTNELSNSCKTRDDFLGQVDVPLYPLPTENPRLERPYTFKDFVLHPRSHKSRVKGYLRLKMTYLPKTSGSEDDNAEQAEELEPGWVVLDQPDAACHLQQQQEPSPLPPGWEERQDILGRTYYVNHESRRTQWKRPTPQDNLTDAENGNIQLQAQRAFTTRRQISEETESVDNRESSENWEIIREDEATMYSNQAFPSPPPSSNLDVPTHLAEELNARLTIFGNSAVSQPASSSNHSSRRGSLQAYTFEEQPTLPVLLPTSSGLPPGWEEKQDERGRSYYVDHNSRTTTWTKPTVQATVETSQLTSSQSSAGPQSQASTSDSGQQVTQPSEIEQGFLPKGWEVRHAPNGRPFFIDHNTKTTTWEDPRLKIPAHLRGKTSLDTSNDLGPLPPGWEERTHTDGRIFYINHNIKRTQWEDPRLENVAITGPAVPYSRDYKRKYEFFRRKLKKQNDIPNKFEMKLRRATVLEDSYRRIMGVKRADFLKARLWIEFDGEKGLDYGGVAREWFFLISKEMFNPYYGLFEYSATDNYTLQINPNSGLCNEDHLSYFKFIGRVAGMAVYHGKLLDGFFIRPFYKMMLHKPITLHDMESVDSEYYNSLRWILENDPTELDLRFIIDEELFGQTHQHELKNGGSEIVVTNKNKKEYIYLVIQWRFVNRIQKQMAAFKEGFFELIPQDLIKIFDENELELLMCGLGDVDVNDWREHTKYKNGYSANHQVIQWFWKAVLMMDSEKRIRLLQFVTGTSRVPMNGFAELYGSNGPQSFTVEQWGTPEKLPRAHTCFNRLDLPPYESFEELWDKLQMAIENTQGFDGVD

Variant | effect of a mutation on the interaction
Y23A | disrupting interaction strength
Y61A | with no effect
Y23A;Y61A | disrupting interaction strength
